Data on one molecule can be found in paper PMC10790385, “Intracellular delivery of Parkin-RING0-based fragments corrects Parkin-induced mitochondrial dysfunction through interaction with SLP-2” (Journal of Translational Medicine, 2024).

The target of assay [1] is T1, recombinant full-length human Parkin protein (aa 1-465) (human, UniProt O60260 1-465).
T1 construct: SUMO cleaved with ULP-1 protease; also called recombinant Parkin; source: E. coli One Shot BL21(DE3)pLysS, purified (IMAC, nondenaturing)
As to the kind of experiment: far-Western, overlay or dot blot; 2 µg recombinant SLP-2 separated by SDS-PAGE and transferred to a membrane, incubated with 60 µg recombinant Parkin, probed with anti-Parkin antibody. As to conditions: both partners purified.

In assay [2] the target is T2, recombinant human Parkin fragment aa 138-465 (human, UniProt O60260 138-465).
T2 construct: SUMO cleaved with ULP-1 protease; source: E. coli One Shot BL21(DE3)pLysS, purified (IMAC, nondenaturing)
T2 sequence (looked up): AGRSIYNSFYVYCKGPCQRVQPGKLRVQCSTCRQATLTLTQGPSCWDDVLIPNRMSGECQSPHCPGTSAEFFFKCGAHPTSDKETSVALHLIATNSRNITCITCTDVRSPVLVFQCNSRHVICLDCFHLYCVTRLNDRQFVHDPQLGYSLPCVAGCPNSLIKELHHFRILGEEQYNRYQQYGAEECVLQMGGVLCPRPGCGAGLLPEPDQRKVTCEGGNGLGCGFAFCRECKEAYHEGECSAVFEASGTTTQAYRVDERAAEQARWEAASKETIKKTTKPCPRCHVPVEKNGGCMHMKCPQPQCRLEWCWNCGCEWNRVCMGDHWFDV
As to the kind of experiment: far-Western, overlay or dot blot; 2 µg recombinant Parkin proteins (aa 1-465 and aa 138-465) separated by SDS-PAGE and transferred to immobilon membrane, incubated for 6 h with 80 µg recombinant SLP-2, probed with anti-SLP-2 antibody. As to conditions: both partners purified.

B1: recombinant human SLP-2 protein (aa 41-356) (domain or fragment, UniProt Q9UJZ1 41-356, looked up)
chain: VPQQEAWVVERMGRFHRILEPGLNILIPVLDRIRYVQSLKEIVINVPEQSAVTLDNVTLQIDGVLYLRIMDPYKASYGVEDPEYAVTQLAQTTMRSELGKLSLDKVFRERESLNASIVDAINQAADCWGIRCLRYEIKDIHVPPRVKESMQMQVEAERRKRATVLESEGTRESAINVAEGKKQAQILASEAEKAEQINQAAGEASAVLAKAKAKAEAIRILAAALTQHNGDAAASLTVAEQYVSAFSKLAKDSNTILLPSNPGDVTSMVAQAMGVYGALTKAPVPGTPDSLSSGSSRDVQGTDASLDEELDRVKMS
notes: Stomatin-like protein 2, human, aa 41-356; SUMO cleaved with ULP-1 protease; also called recombinant SLP-2; source: E. coli One Shot BL21(DE3)pLysS, purified (IMAC, nondenaturing)
Regarding B1, the binding result in assay [1] and in assay [2] was “binds” each time.
